Measurements taken from PMC7037036, “C-Terminal Domain of the Human Zinc Transporter hZnT8 Is Structurally Indistinguishable from Its Disease Risk Variant (R325W)” (International Journal of Molecular Sciences, 2020).

Target: the molecule itself
Assay: SEC; Superdex 75, protein 10 mg/mL, 20 mM Tris pH 7.5, 150 mM NaCl, native conditions; calibrated with standard proteins; for the WT CTD the profile was similar with 3 mM beta-mercaptoethanol and the tetramer was kept in 8 M urea (some aggregates)

B1: C-terminal domain (CTD) of the human zinc transporter 8 (hZnT8), wild type (domain or fragment, UniProt Q8IWU4 281-369, looked up)
chain: SLNYSGVKELILAVDGVLSVHSLHIWSLTMNQVILSAHVATAASRDSQVVRREIAKALSKSFTMHSLTIQMESPVDQDPDCLFCEDPCD
notes: human zinc transporter 8 (hZnT8, SLC30A8), C-terminal domain, Ser281-Asp369; Expressed as His-MBP-TEV-CTD from a pET28a-based vector; N-terminal tags removed with TEV protease; Measured mass 9.828 kDa; also called WT CTD; hZnT8 CTD; source: E. coli BL21 (DE3), purified (Ni-NTA, TEV cleavage, Hi-Trap Q anion exchange, repeated Ni-NTA, amylose resin); not shown: His tag, N-terminal, cleaved; MBP, …
  stoichiometry N: 4

B2: C-terminal domain (CTD) of the human zinc transporter 8 (hZnT8), disease risk variant R325W (domain or fragment, UniProt Q8IWU4 281-369, looked up)
chain: SLNYSGVKELILAVDGVLSVHSLHIWSLTMNQVILSAHVATAASWDSQVVRREIAKALSKSFTMHSLTIQMESPVDQDPDCLFCEDPCD
notes: human zinc transporter 8 (hZnT8, SLC30A8), C-terminal domain, Ser281-Asp369, natural variant R325W (SNP rs13266634); Made from the WT CTD plasmid by QuikChange site-directed mutagenesis; N-terminal tags removed with TEV protease; also called R325W CTD; CTD of the disease risk variant; source: E. coli BL21 (DE3), purified (Ni-NTA, TEV cleavage, Hi-Trap Q anion exchange, repeated Ni-NTA, amylose …)
  stoichiometry N: 4
